Patent publication US6783760

Target: anti-VCAM-1.tTF coaguligand (anti-VCAM-1 antibody IgG covalently linked via SMPT to truncated tissue factor with an added N-terminal cysteine) (human) (UniProt P13726)
Test: 125I-labeled 10H10 bound to anti-VCAM-1.tTF-treated IL-1α-activated bEnd.3 cells, gamma counting

UniProt P13726, sequence (P13726 other isoform, or with tags, fused parts or gaps): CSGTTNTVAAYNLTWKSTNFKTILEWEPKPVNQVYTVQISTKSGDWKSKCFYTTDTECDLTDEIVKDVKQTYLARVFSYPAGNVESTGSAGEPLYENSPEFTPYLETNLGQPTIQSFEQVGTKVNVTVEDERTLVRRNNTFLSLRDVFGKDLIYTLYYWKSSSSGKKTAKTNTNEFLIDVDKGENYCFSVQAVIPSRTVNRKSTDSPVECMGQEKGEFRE

Substance: 10H10, mouse monoclonal antibody against human tissue factor
- anti-TF antibody bound to coaguligand-treated cells at saturation: 8.7 fmol
- molecules of anti-TF antibody bound per cell at saturation (molecules of anti-TF antibody per cell): 540000
